{"source": "patent US20230265198A1", "about": "(TWIST BIOSCIENCE, published 2023)", "data": [{"target": "neuropilin-1 (NRP1) on HEK293 cells overexpressing NRP1 (UniProt O14786)", "assay": "flow cytometry, HEK293-NRP1 vs HEK293", "values": [{"binder": "NRP1-269 (antibody, IgG2, V domains shown) VH: EVQLLESGGGLVQPGGSLRLSCAASGFTFSNYVMTWVRQAPGKGLEWVSTISGSGGGTFYADSVKGRFTISRDNSKNTLYLQMNSLRAEDTAVYYCATDTVWASAWGSWGQGTLVTVSS VL: DIQMTQSPSSLSASVGDRVTITCRASQTIRKYLNWYQQKPGKAPKLLIYAASSLQSGVPSRFSGSGSGTDFTLTISSMQPEDFATYYCQQSYSTPITFGGGTKVEIK", "100 nM FACS (MFI Ratio)": 1.9}, {"binder": "NRP1-277 (antibody, IgG2, V domains shown) VH: EVQLLESGGGLVQPGGSLRLSCAASGFRFSTYAMSWVRQAPGKGLEWVSTVSGSGAYTYYADSVKGRFTISRDNSKNTLYLQMNSLRAEDTAVYYCADIAVAGTWGQGTLVTVSS VL: DIQMTQSPSSLSASVGDRVTITCRASQRISDYLNWYQQKPGKAPKLLIYAASTLQSGVPSRFSGSGSGTDFTLTISSLQPEDFATYYCQQSFSTPITFGGGTKVEIK", "100 nM FACS (MFI Ratio)": 1.5}, {"binder": "NRP1-296 (antibody, IgG2, V domains shown) VH: EVQLLESGGGLVQPGGSLRLSCAASGFTFSGHAMSWVRQAPGKGLEWVSGISGSGGKIYYADSVKGRFTISRDNSKNTLYLQMNSLRAEDTAVYYCTRDVRSKDYVRGSSRYHGGMDVWGQGTLVTVSS VL: DIQMTQSPSSLSASVGDRVTITCRASHSISRYLNWYQQKPGKAPKLLIYSASSLRSGVPSRFSGSGSGTDFTLTISSLQPEDFATYYCQQRYITPWTFGGGTKVEIK", "100 nM FACS (MFI Ratio)": 1.5}, {"binder": "NRP1-297 (antibody, IgG2, V domains shown) VH: EVQLLESGGGLVQPGGSLRLSCAASGFTFGRYAMSWVRQAPGKGLEWVSSISGSGGSTYYTDSVKGRFTISRDNSKNTLYLQMNSLRAEDTAVYYCVRALAGRRDHWGQGTLVTVSS VL: DIQMTQSPSSLSASVGDRVTITCRTSQRISTSLNWYQQKPGKAPKLLIYGASNLQSGAPSRFSGSGSGTDFTLTISSLQPEDFATYYCQQSYFTPITFGGGTKVEIK", "100 nM FACS (MFI Ratio)": 1.6}, {"binder": "NRP1-43 (VHH) VHH: EVQLVESGGGLVQPGGSLRLSCAASGYFASWYYMGWFRQAPGKEREWVATIYSPSGSAVYADSVKGRFTISADNSKNTAYLQMNSLKPEDTAVYYCARDSFYDGSGYSPWGQGTLVTVSS", "100 nM FACS (MFI Ratio)": 1.5}, {"binder": "NRP1-44 (VHH) VHH: EVQLVESGGGLVQPGGSLRLSCAASGRSFSTYIMGWFRQAPGKERELVARITSGGYTYADSVKGRFTISADNSKNTAYLQMNSLKPEDTAVYYCAADVSPSYGSRWYWGQGTLVTVSS", "100 nM FACS (MFI Ratio)": 1.6}, {"binder": "NRP1-53 (VHH) VHH: EVQLVESGGGLVQPGGSLRLSCAASGRTFNRYPMGWFRQAPGKEREWVAAITPQGVPNYADSVKGRFTISADNSKNTAYLQMNSLKPEDTAVYYCAIHTSREIWGQGTLVTVSS", "100 nM FACS (MFI Ratio)": 1.9}, {"binder": "NRP1-58 (VHH) VHH: EVQLVESGGGLVQPGGSLRLSCAASGRTFNRYPMGWFRQAPGKEREWVAGINSGGGTWYADSVKGRFTISADNSKNTAYLQMNSLKPEDTAVYYCAIHTSREIWGQGTLVTVSS", "100 nM FACS (MFI Ratio)": 1.9}, {"binder": "NRP1-62 (VHH) VHH: EVQLVESGGGLVQPGGSLRLSCAASGSSLSNYTMGWFRQAPGKERELVATIWWTVGAPYYADSVKGRFTISADNSKNTAYLQMNSLKPEDTAVYYCAAYQRGWGDWGQGTLVTVSS", "100 nM FACS (MFI Ratio)": 1.5}, {"binder": "NRP1-70 (VHH) VHH: EVQLVESGGGLVQPGGSLRLSCAASGDTFSRYTMGWFRQAPGKEREFVATIWWTFDAPYYADSVKGRFTISADNSKNTAYLQMNSLKPEDTAVYYCAARSPMSPTWDWGQGTLVTVSS", "100 nM FACS (MFI Ratio)": 1.9}]}]}
